According to patent US20110183942A1, “Methods and Compositions for Treating Alzheimer's Disease” (UNIVERSITY OF MEDICINE AND DENTISTRY OF NEW JERSEY, priority 2008, published 2011):
Entries after “also recorded” stand apart in the source; their conditions may differ. Read-outs that look alike come from different tables or passages of the source. Blank lines part the entries; values can stand above or below the molecule they belong to. Where no end group is shown, it is not given here.

Columns and labels:
eEF2 kinase [1] = molecular target: T1, eEF2 kinase (Homo sapiens, UniProt O00418); assay: HTS screen for eEF2 kinase inhibitors (ATP depletion coupled to luciferase luminescence, eEF2p substrate); assay type: biochemical
T1 construct: made in house; host or cells: E. coli

eEF2 kinase [2] = molecular target: T1, eEF2 kinase; assay: Peptide substrate phosphorylation by eEF2 kinase; assay type: biochemical
From the text: While alpha-kinase phosphorylation sites are typically found within alpha-helicies of peptide substrates, it was unknown for eEF2K if alpha-kinases recognized target substrates based on a specific primary peptide sequence around the phosphorylation site of eEF2K, or whether the alpha-helical secondary structure is responsible for the phosphorylation by alpha-kinases. To clarify this an arrayed peptide library screen was used (Turk, Yale Med. Sch. Dept. Pharmacol.) that thoroughly evaluated for specific kinase preference all 20 amino acids at each of nine positions neighboring the phosphorylation site.
Every peptide comprising this library contained a central fixed phosphorylation site where equimolar quantities of threonine and serine were introduced; each peptide also contained a carboxy-terminal biotin label. […]
Reactions in this screen were run for a given incubation time and then spotted simultaneously on a streptavidin membrane through use of a high throughput capillary-based liquid transfer device. Submersion of the membrane in a specified quenching solution stripped away unincorporated ATP and then radiolabeled-ATP incorporation was measured using a phosphoimager. […]

eEF2K = eEF2K (Homo sapiens, UniProt O00418); assay: eEF2K activity in vitro; assay type: biochemical
[3] = test system: Arc protein in DIV14 forebrain neurons; assay: Western blot of Arc protein in cultured forebrain neurons; assay type: cell-based, mouse; details: BDNF 10 ng/ml
Procedure: For biochemistry experiments, 0.4×10^6 neurons were added to each well of a 6-well plate (Coming) coated with poly-L-lysine. Growth medium consisted of NeuroBasal (Invitrogen) supplemented with 1% fetal bovine serum (Hyclone), 2% B27, 1% Glutamax (Invitrogen), 100 U/mL penicillin, and 100 U/mL streptomycin (Invitrogen). Neurons were fed twice per week with glia conditioned growth medium.
Transfected HEK293T cells or cultured neurons were treated with various drugs and then harvested in IP buffer supplemented with 1% Triton X-100 buffer and Complete™ EDTA-Free protease inhibitors. Soluble fractions were diluted with 4× SDS sample buffer.
The membrane was blocked with TBST (50 mM Tris, pH 7.5, with 150 mM NaCl, and 0.1% Tween-20) containing 5% non-fat milk for one hour at room temperature, followed by incubation with primary antibody in TBST buffer overnight at 4° C. After three washes with TBST buffer, membranes were incubated with HRP-conjugated anti-rabbit, or anti-mouse antibody in TBST for another hour. After three washes with TBST buffer, the membrane was treated with SuperSignal ECL substrate (Pierce) according to the manufacturer's protocol.
To reduce the background signal in the co-IP assay, HRP-conjugated HA or HPR conjugated myc antibody (Santa Cruz) was used when overexpressed proteins were tagged with HA or myc. […] Image J software (NIH) was used for quantification.

[4] = test system: Arc mRNA in cultured neurons; assay: Real-time RT-PCR of Arc mRNA; assay type: cell-based; details: BDNF 10 ng/ml at 40 min; forskolin 50 μM at 20 min; DHPG at 20 and 40 min after stimulation
Procedure: RNA samples from neuronal cultures were prepared using the PARIS kit (Ambion) according to the manufacturer's protocol. Following RNA extraction, samples were treated with DNase to remove contaminating DNA prior to cDNA synthesis. Total RNA was reverse transcribed using the SuperScript II First Strand Synthesis System for RT-PCR (Invitrogen) according to the manufacturer's protocol. A negative control without reverse transcriptase was included.
Primer specificity was verified by melt curve analysis. PCR amplification of cDNA was performed using the BioRad iCycler Real-Time Detection System (BioRad Laboratories). cDNA (1 μl) was added to 24 μl of 1× reaction master mix (3 mM MgCl2, KCl, Tris-HCl, iTaq DNA polymerase, 25 units/ml SYBR Green 1, 0.2 mM each dNTPs, 10 nM fluorescein and 500 nM each gene specific primers). […]
GAPDH was used to normalize data. The threshold for detection of PCR product above background was set at 10× the standard deviation of the mean background fluorescence for all reactions. Background fluorescence was determined from cycles 1-5 prior to the exponential amplification of product and subtracted from the raw fluorescence of each reaction/cycle. […] Threshold cycle (CT; number of cycles to reach threshold of detection) was determined for each reaction.
Relative gene expression was determined using the 2^−ΔΔCT method (Livak, et al., Methods 25, 402-408 (2001)). […]

identified as inhibitor for eEF2 kinase (eEF2 kinase [1]): inhibitors for eEF2 kinase
Molecule: CCCCCCCCCCCCCCCCN1C=CN(c2ccccc2)C1 [L-207]

efficiency as substrate compared with the MH-U peptide (eEF2 kinase [2]): two orders of magnitude more efficient
Molecule: Ac-RKKYKFNEDTERRRFL [eEF2p]

inhibition of eEF2K activity in vitro (eEF2K): inhibit eEF2K activity | inhibition of eEF2K activity in vitro (eEF2K; listed as sphingosine-1-phosphate): inhibitor of eEF2 kinase
Molecule: CCCCCCCCCCCCC/C=C/[C@@H](O)[C@@H](N)COP(=O)(O)O [Sphingosine-1-phosphate, sphingosine-1-phosphate]

B1: BDNF: BDNF, applied at 10 ng/ml to neurons (protein, UniProt P23560 19-247, looked up)
Neurotrophic factor BDNF …: APMKEANIRGQGGLAYPGVRTHGTLESVNGPKAGSRGLTSLADTFEHVIEELLDEDQKVRPNEENNKDADLYTSRVMLSSQVPLEPPLLFLLEEYKNYLDAANMSMRVRRHSDPARRGELSVCDSISEWVTAADKKTAVDMSGGTVTVLEKVPVSKGQLKQYFYETKCNPMGYTKEGCRGIDKRHWNSQCRTTQSYVRALTMDSKKRIGWRFIRIDTSCVCTLTIKRGR
level of Arc protein after BDNF ([3]; 40 min after treatment): increased Arc protein expression; also recorded: increased the level of Arc protein | level of Arc protein after BDNF ([3]; after 5 min): no change | level of Arc mRNA [4]: induced the level of Arc mRNA
